Reference: publication PMC4364632, “Engineering a fungal peroxidase that degrades lignin at very acidic pH” (Biotechnology for Biofuels, 2014)
Substitutions are numbered along the chain they refer to. In names and notes the source's numbering stands.

Experiments:
[1] = system: T1, VP1; assay: dimeric coerulignone formation at […] nm, steady-state kinetics; format: biochemical, Pleurotus ostreatus; conditions: 0.1 mM H2O2, 0.1 M tartrate pH 3.5, 25°C; biphasic, high-efficiency site (catalytic Trp)
T1 construct: mature protein, signal peptide removed, untagged in pET23a

[2] = system: T1, VP1; assay: ABTS cation radical formation at […] nm, steady-state kinetics; format: biochemical, Pleurotus ostreatus; conditions: 0.1 mM H2O2, 0.1 M tartrate pH 3.5, 25°C; biphasic, high-efficiency site (catalytic Trp)
[3] = system: T1, VP1; assay: RB5 disappearance at […] nm, steady-state kinetics; format: biochemical, Pleurotus ostreatus; conditions: 0.1 mM H2O2, 0.1 M tartrate pH 3.5, 25°C
[4] = system: T1, VP1; assay: veratraldehyde formation at […] nm, steady-state kinetics; format: biochemical, Pleurotus ostreatus; conditions: 0.1 mM H2O2, 0.1 M tartrate pH 3.0, 25°C
[5] = substrate: COc1ccc(CO)cc1OC; assay: purified protein; format: biochemical, Gelatoporia subvermispora; conditions: 0.1 mM H2O2, 0.1 M tartrate pH 3.0, 25°C
[6] = substrate: CCn1c(=NN=c2sc3cc(S(=O)(=O)O)ccc3n2CC)sc2cc(S(=O)(=O)O)ccc21; assay: purified protein; format: biochemical, Gelatoporia subvermispora; conditions: 0.1 mM H2O2, 0.1 M tartrate pH 3.5, 25°C
[7] = substrate: COc1ccccc1OC(CO)C(O)c1cc(OC)c(OC)c(OC)c1; assay: purified protein; format: biochemical, Gelatoporia subvermispora; conditions: 0.1 mM H2O2, 100 mM BR buffer pH 3.0, 25°C, unit doubtful: printed kcat/Km (s^-1.mM^-1) implies mM
[8] = substrate: Nc1c(N=Nc2ccc(S(=O)(=O)CCOS(=O)(=O)O)cc2)c(S(=O)(=O)O)cc2cc(S(=O)(=O)O)c(N=Nc3ccc(S(=O)(=O)CCOS(=O)(=O)O)cc3)c(O)c12; assay: purified protein; format: biochemical, Gelatoporia subvermispora; conditions: 0.1 mM H2O2, 0.1 M tartrate pH 3.5, 25°C
[9] = substrate: COc1ccc(CO)cc1OC; assay: purified protein; format: biochemical, Phanerodontia chrysosporium; conditions: 0.1 mM H2O2, 0.1 M tartrate pH 3.0, 25°C
[10] = substrate: CCn1c(=NN=c2sc3cc(S(=O)(=O)O)ccc3n2CC)sc2cc(S(=O)(=O)O)ccc21; assay: purified protein; format: biochemical, Phanerodontia chrysosporium; conditions: 0.1 mM H2O2, 0.1 M tartrate pH 3.5, 25°C
[11] = substrate: COc1cccc(OC)c1O; assay: purified protein; format: biochemical, Phanerodontia chrysosporium; conditions: 0.1 mM H2O2, 0.1 M tartrate pH 3.5, 25°C

COc1cccc(OC)c1O [2,6-dimethoxyphenol] was tested, and the Km [1] was 54 ± 4 µM.

CCn1c(=NN=c2sc3cc(S(=O)(=O)O)ccc3n2CC)sc2cc(S(=O)(=O)O)ccc21 [2,2'-azino-bis(3-ethylbenzothiazoline-6-sulfonate)] gave a Km [2] of 4 ± 0.4 µM.

With Nc1c(N=Nc2ccc(S(=O)(=O)CCOS(=O)(=O)O)cc2)c(S(=O)(=O)O)cc2cc(S(=O)(=O)O)c(N=Nc3ccc(S(=O)(=O)CCOS(=O)(=O)O)cc3)c(O)c12 [Reactive Black 5] the Km [3] was 5.4 ± 0.2 µM.

With COc1ccc(CO)cc1OC [veratryl alcohol] the Km [4] was 5500 ± 46 µM.

B1: MnP6 (Gelatoporia subvermispora B; S171W/S189W) (protein)
chain: APTAVCSDGTRVSNAVCCDFVSLGQDLQSMVLQGDCGEDAHEIIRLTFHDAVAISRKLGPSAGGGADGSMLLFPLVEPEFAASNGIDDSVNNLIPFLSLHPTISAGDLVQFAGAVALSNCPGAPRVQFLAGRPNHTIAAIDGLIPEPQDNVTWILERFDDAGGFTPFEVVWLLASHTIARADKVDPTLDAAPFDTTPFTFDSQIFLEVLLKGVGFPGLDNNTGEVSSPLPLGDTSTGGKDTGLMRLQSDFALAHDPRTACFWQGFVDQQEFMSQSFASAFAKLAVLGHNTDDLIDCSEVVPVPKPAVDKPTTFPATTGPQDLELSCLAERFPTLSVDPGAQETLIPHCSDGLENCTSVQFSGPATDSP
notes: mature protein, signal peptide removed, untagged in pET23a; S168W and S168W-environment variants
B1 showed a Km [5] of 2740 ± 560 µM, a kcat [5] of 0.54 ± 0.04 s⁻¹ and a kcat/Km [5] of 197 M⁻¹ s⁻¹. It also gave a Km [6] of 60.2 ± 13.4 µM, a kcat [6] of 1.4 ± 0.1 s⁻¹ and a kcat/Km [6] of 23000 ± 3000 M⁻¹ s⁻¹. The Km [7] was 0.0049 ± 0.0013 mM, the Km [8] was 12.6 ± 3 µM and the kcat [8] was 7.8 ± 1.1 s⁻¹. For the same molecule, the kcat/Km [8] was 619000 ± 27000 M⁻¹ s⁻¹.

B2: MnP6 (Gelatoporia subvermispora B; F279E/F283M/F289K/Q292N/S171W/S189W/S293R/S296G/T183S) (protein)
chain: B1 chain with T165S, F261E, F265M, F271K, Q274N, S275R, S278G
notes: as for B1
In the case of B2, the Km [5] is reported as 21600 ± 200 µM, the kcat [5] is reported as 1.69 ± 0.04 s⁻¹ and the kcat/Km [5] is reported as 78 M⁻¹ s⁻¹. For the same molecule, the Km [8] was 5.4 ± 3 µM, the kcat [8] was 7 ± 1.1 s⁻¹ and the kcat/Km [8] was 1.31e+06 ± 100000 M⁻¹ s⁻¹.

B3: LiP-H8 (Phanerodontia chrysosporium) (protein)
chain: ATCSNGKTVGDASCCAWFDVLDDIQQNLFHGGQCGAEAHESIRLVFHDSIAISPAMEAQGKFGGGGADGSIMIFDDIETAFHPNIGLDEIVKLQKPFVQKHGVTPGDFIAFAGRVALSNCPGAPQMNFFTGRAPATQPAPDGLVPEPFHTVDQIINRVNDAGEFDELELVWMLSAHSVAAVNDVDPTVQGLPFDSTPGIFDSQFFVETQLRGTAFPGSGGNQGEVESPLPGEIRIQSDHTIARDSRTACEWQSFVNNQSKLVDDFQFIFLALTQLGQDPNAMTDCSDVIPQSKPIPGNLPFSFFPAGKTIKDVEQACAETPFPTLTTLPGPETSVQRIPPPPGA
Molecule B3 has a Km [9] of 190 ± 17 µM, a kcat [9] of 17.5 ± 0.5 s⁻¹ and a kcat/Km [9] of 92000 ± 6000 M⁻¹ s⁻¹. For the same molecule, the Km [10] was 23.0 ± 1.6 µM, the kcat [10] was 13 ± 0.2 s⁻¹ and the kcat/Km [10] was 563000 ± 36000 M⁻¹ s⁻¹. The Km [11] was 5.8 ± 0.5 µM, the kcat [11] was 10 ± 0.1 s⁻¹ and the kcat/Km [11] was 1.72e+06 ± 153000 M⁻¹ s⁻¹.
